Measurements published in patent US20240092879A1.

Tests used:
[1] = biological target: Centruroides sculpturatus whole venom (toxic components CsEM1a and CsEd, ~10% of the venom); assay: cell-based or functional assay
[2] = biological target: CsEM1a toxin from Centruroides sculpturatus venom (Centruroides sculpturatus); assay: SPR (Biacore X), toxin on CM5 chip, scFv injected, 25 C, Langmuir 1:1
[3] = biological target: CsEd toxin from Centruroides sculpturatus venom (Centruroides sculpturatus); assay: as above

Sequence of CsEM1a toxin from Centruroides sculpturatus venom (Centruroides sculpturatus) (P56646 whole entry): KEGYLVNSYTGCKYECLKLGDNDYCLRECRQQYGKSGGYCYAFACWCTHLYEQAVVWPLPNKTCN
Sequence of scFv 10FG2 (SEQ. ID. NO: 1) (scFv): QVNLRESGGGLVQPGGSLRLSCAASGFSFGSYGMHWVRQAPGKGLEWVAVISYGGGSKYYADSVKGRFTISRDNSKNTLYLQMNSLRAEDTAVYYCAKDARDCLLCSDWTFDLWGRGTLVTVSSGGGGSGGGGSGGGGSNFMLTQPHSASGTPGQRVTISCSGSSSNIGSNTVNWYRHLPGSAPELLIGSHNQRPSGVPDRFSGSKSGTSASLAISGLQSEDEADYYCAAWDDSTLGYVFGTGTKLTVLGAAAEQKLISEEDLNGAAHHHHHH

Substance: scFv 10FG2 (SEQ. ID. NO: 1)
- Survivors/Total, mixing test, 2 LD50, molar ratio toxin:scFv 1:5 (survivors of 6 mice) [1]: 6
- Survivors/Total, mixing test, 3 LD50, molar ratio toxin:scFv 1:3.3 (survivors of 6 mice) [1]: 6
- Survivors/Total, mixing test, 4 LD50, molar ratio toxin:scFv 1:2.5 (survivors of 6 mice) [1]: 6
- Survivors/Total, mixing test, 5 LD50, molar ratio toxin:scFv 1:2 (survivors of 6 mice) [1]: 6
- Survivors/total, mice injected with venom premixed with scFv, 2 LD50, molar ratio toxin:scFv 1:10 (survivors of 6 mice) [1]: 6
- Kd [2]: 1.1 nM
- TR (min), residence time [2]: 63 min
- koff [2]: 0.000261 s⁻¹
- kon [2]: 237000 M⁻¹ s⁻¹
- Kd [3]: 1.84 nM
- TR (min), residence time [3]: 49 min
- koff [3]: 0.00034 s⁻¹
- kon [3]: 185000 M⁻¹ s⁻¹
